Measurements taken from patent US20070280945A1 (Regeneron, published 2007).
Where a chain is given by its changes, count along the chain named.

T1: hIL-6R recombinant protein (plate-coated, Example 5) (human, UniProt P08887 20-358, limits assumed)
T1 construct: also called antigen
T1 sequence: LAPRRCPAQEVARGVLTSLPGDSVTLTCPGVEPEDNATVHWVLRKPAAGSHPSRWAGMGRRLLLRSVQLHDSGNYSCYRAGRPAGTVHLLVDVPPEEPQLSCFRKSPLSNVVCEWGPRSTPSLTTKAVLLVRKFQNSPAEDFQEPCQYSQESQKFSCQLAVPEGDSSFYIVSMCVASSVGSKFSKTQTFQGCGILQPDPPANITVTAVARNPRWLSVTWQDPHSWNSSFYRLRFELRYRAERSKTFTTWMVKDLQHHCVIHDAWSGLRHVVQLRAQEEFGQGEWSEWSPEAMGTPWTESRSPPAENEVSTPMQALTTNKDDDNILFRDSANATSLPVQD

T2: hIL-6R-hFc (human, UniProt P08887 20-358)
T2 construct: also called dimeric hIL-6R; Dimer; not shown: human Fc (hFc)
T2 sequence: T1 sequence

T3: hIL-6R on hIL-6-responsive human cells (XG-1 myeloma line, HepG2 hepatoma line) (human, UniProt P08887 20-468)
T3 sequence (looked up): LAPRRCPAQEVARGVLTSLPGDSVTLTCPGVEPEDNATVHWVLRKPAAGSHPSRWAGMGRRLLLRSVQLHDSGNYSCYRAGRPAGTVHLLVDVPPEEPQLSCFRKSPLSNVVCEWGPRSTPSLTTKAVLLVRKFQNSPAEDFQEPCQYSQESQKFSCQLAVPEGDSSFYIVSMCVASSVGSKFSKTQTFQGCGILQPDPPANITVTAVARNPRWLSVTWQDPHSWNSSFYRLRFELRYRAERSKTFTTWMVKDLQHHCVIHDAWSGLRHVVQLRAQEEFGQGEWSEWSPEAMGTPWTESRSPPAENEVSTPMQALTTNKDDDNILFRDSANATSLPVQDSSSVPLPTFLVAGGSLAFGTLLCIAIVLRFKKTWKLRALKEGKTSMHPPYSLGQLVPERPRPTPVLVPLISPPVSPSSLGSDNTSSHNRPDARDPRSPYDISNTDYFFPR

T4: recombinant hIL-6R protein, monomeric form (human, UniProt P08887 20-358)
T4 construct: also called monomeric hIL-6R; Human IL6R
T4 sequence: T1 sequence

B1: VV3D8-4 (antibody, V domains shown)
VH: EVQLVESGGGLVQPGRSLRLSCAASGFTFDDYALHWVRQAPGKGLEWVSGISWNSGRIGYADSVKGRFTISRDNAKNSLFLQMNSLRAEDTALYYCAKGRDAFDIWGQGTLVTVSS
VL: DIQMTQSPSSVSASVGDRVTITCRASQGISSWLAWYQQKPGKAPKLLIYAASSLQSGVPSRFSGSGSGTDFTLTISSLQPEDFATYYCQQANSFPYTFGQGTKLEIK
notes: Human variable regions with mouse constant region
B2: VV6C10-1 (antibody, V domains shown)
VH: B1 VH with I51V, S55G, A88V
VL: EIVLTQSPATLSLSPGERATLSCRASQSVSSYLAWYQQKPGQAPRLLIYDASNRATGIPARFSGSGSGTDFTLTISSLEPEDFAFYYCQQRNNRPPFTFGPGTKVDVR
notes: as for B1
B3: VV7G4-10 (antibody, V domains shown)
VH: QVQLVQSGAEVKKPGASVKVSCKASGYTFTSYGISWVRQAPGQGLEWMGWISAYNDDTNYAQKFQGRVTMTTDTSTSTAYMELRSLRSDDTAVYYCAREAQLVLYYYYGMDVWGQGTTVTVSS
VL: EIVLTQSPATLSLSPGERATLSCRASQSVSSFLAWNQQKPGQAPRLLIYDASNRATGIPARFSGSGSGTDFTLTISSLEPEDFAVYYCQQRSNWPYIFGQGTKLEIK
notes: as for B1
B4: VV9A6-11 (antibody, V domains shown)
VH: B3 VH
VL: B3 VL
notes: as for B1
B5: VV6F12-11 (antibody, V domains shown)
VH: QVQLVQSGAEVKEPGASVKISCKASGYTFTSYDIIWVRQATGQGLEWMGWMNPNSGDRGYTQNLQGRVTLTRDTSISTVYMELSSLRSEDTAVYYCARDYSNHYYGLDVWGQGTTVTVSS
VL: DIQLTQSPSFLSASVGDRVTITCWASQDISNYLAWYQQKPGKAPKLLIFVASTLQSGVPSRFSGSGSGTEFTLTISSLQPEDFATYYCQQFNSYPLTFGGGTKVEIR
notes: as for B1
B6: VV6C10-3 (antibody, V domains shown)
VH: QVQLVQSGAEVKKPGASVKVSCKASGFNFFHYGITWVRQAPGQGLEWMGWISTYNGDTIYAQKVQGRVTMTTDTATSTAYMELRSLRSDDTAVYYCARSEQQVDYYFYGMDVWGQGTTVTVSS
VL: B2 VL
notes: as for B1
B7: VQ1G4-21 hIgG4 (antibody, V domains shown)
VH: B5 VH with I20V, D57N, R58T, D73N, S77T, R87S, N102S
VL: B5 VL with A13T, V15I, R107K
notes: Human IgG4 constant region
B8: VQ1G4-21 hIgG1 (antibody, V domains shown)
VH: B5 VH with I20V, D57N, R58T, D73N, S77T, R87S, N102S
VL: B5 VL with A13T, V15I, R107K
notes: Human IgG1 constant region
B9: VV6A9-5 hIgG4 (antibody, V domains shown)
VH: B1 VH with I51V, S55G, A88V
VL: B1 VL with Q90H, N92Y
notes: Human IgG4 constant region
B10: VQ8F11-21 hIgG1 (antibody, V domains shown)
VH: B1 VH with G26R, L34M, K76E, S85G, A102S, L111M
VL: B1 VL with A50G, Q55E, T85S
B11: VV6A9-5 hIgG1 (antibody, V domains shown)
VH: B1 VH with I51V, S55G, A88V
VL: B1 VL with Q90H, N92Y
notes: Human IgG1 constant region
B12: VQ8F11-21 hIgG4 (antibody, V domains shown)
VH: B1 VH with G26R, L34M, K76E, S85G, A102S, L111M
VL: B1 VL with A50G, Q55E, T85S
notes: Human IgG4 (wild-type) constant region
B13: VQ8A9-6 hIgG1 (antibody, V domains shown)
VH: EVQLVESGGNLVQPGRSLRLSCAASGFIFDDYAMHWVRQAPGKGLEWVSGISWNSGSIGYADSVKGRFTISRDNAKNSLYLQMNSLRAEDTALYYCAKDGGSSWLPFVYYYGMDVWGQGTTVTVSS
VL: EIVMTQSPATLSVSPGERATLSCRASQSISSNFAWYQQKPGQAPRLLIYGASTRATGIPARFSGSGSGTDFTLTISSLQSEDFAVYYCQQYSSWPPYTFGQGTKLEIK
notes: Human IgG1 constant region
B14: VQ8A9-6 hIgG4 (antibody, V domains shown)
VH: B13 VH
VL: B13 VL
notes: Human IgG4 constant region

The binders below were run against T1, hIL-6R recombinant protein … (assay: SPR (BIAcore) competition on hIL-6R; competitor: control antibody).

% reduction of binding by control antibody [%] | Binder
97 | B1
90 | B2

These binders were tested against T2, hIL-6R-hFc (assay: competition ELISA: antibody premixed with serial dilutions of hIL-6R-hFc, free antibody detected on hIL-6R-hFc-coated plate).

IC50 [nM] | Binder
1.98 | B3
0.347 | B4
0.033 | B5
0.013 | B1
0.01 | B2
0.009 | B6

What follows are binders tested against T3, hIL-6R on hIL-6-responsive human cells … (assay: cell-based or functional assay).

XG-1 cell proliferation Inhibition IC50 [nM] | Binder
> 100 | B1
> 6.9 | B2

Each binder was assayed against T4, recombinant hIL-6R protein, monomeric … (assay: Kinexa solution-phase competition immunoassay, monomeric hIL-6R).

Kd [nM] | Binder
1.91 | B1
2.05 | B2

The binders below were run against T4, recombinant hIL-6R protein, monomeric … (assay: SPR (BIAcore), antibody captured on anti-mouse IgG surface, monomeric hIL-6R).

Kd [nM] | Binder
2.41 | B1
0.267 | B2

Each binder was assayed against T2, hIL-6R-hFc (assay: SPR (BIAcore), antibody captured on anti-mouse IgG surface, dimeric hIL-6R).

Kd [nM] | Binder
0.172 | B1
0.032 | B2

The binders below were run against T2, hIL-6R-hFc (assay: blocking ELISA: 100 pM hIL-6R-hFc premixed with varied antibody, free hIL-6R-hFc captured on hIL-6-coated plate).

IC50 [nM] | Binder
13 | B3
0.5 | B4
2.2 | B5
0.61 | B1
4.6 | B2
0.06 | B6

The binders below were run against T4, recombinant hIL-6R protein, monomeric … (assay: SPR (BIAcore), antibody captured on goat anti-human Fc, monomeric hIL-6R 1.56-12.5 nM).

Kd [nM] | koff [s⁻¹] | kon [M⁻¹ s⁻¹] | Binder
0.336 | 9.18e-05 | 273000 | B7
0.237 | 7.92e-05 | 334000 | B8
0.135 | 7.64e-05 | 567000 | B9
0.073 | 4.54e-05 | 622000 | B10
0.125 | 8.87e-05 | 712000 | B11
0.073 | 5.22e-05 | 717000 | B12
0.238 | 0.00026 | 1.09e+06 | B13
0.201 | 0.000235 | 1.17e+06 | B14

These binders were tested against T2, hIL-6R-hFc (assay: SPR (BIAcore): hIL-6R-hFc captured, antibody injected, then 50 nM hIL-6; percent reduction in hIL-6 binding).

hIL6/hIL6R Binding Inhibition (%) | Binder
93 | B1
61 | B2

What follows are binders tested against T1, hIL-6R recombinant protein … (assay: competition ELISA on hIL-6R-coated plate presaturated with competitor control antibody; test antibody 50 ng/ml).

% reduction of binding by control antibody [%] | Binder
26 | B3
18 | B4
3 | B5
84 | B1
80 | B2
1 | B6

Biological target: T3, hIL-6R on hIL-6-responsive human cells …
Test: cell-based or functional assay
Remark: another data set of the same source

HepG2/STAT3 luciferase assay IC50 [nM] | Binder
0.528 | B7
0.767 | B8
0.343 | B9
0.15 | B10
0.204 | B11
0.228 | B12
0.13 | B13
0.185 | B14
